Assay [1] concerns the target HsFA1e^R126E in pGBKT7 (BD) (Arabidopsis thaliana) (UniProt Q9SCW5). Put plainly: two-hybrid; CRY1 as prey in pGADT7 (AD), HsF as bait in pGBKT7 (BD), co-transformed into yeast Y187; liquid beta-galactosidase assay with CPRG, Miller units; not detected (ND) if OD578 <0.01 after 3 h of color development.
The target of assay [2] is HsFA3 E188R in pGBKT7 (BD) (Arabidopsis thaliana) (UniProt Q8GYY1). The assay is described as above.
Assay [3] addresses HsFA3 E188R in pGBKT7 (BD) (UniProt Q8GYY1). Kind of assay: yeast two-hybrid (beta-galactosidase, Miller units). The conditions noted are these: n=3; parent: est. 270; read off a plot.

HsFA3 E188R in pGBKT7 (BD), sequence (Q8GYY1 whole entry E188R): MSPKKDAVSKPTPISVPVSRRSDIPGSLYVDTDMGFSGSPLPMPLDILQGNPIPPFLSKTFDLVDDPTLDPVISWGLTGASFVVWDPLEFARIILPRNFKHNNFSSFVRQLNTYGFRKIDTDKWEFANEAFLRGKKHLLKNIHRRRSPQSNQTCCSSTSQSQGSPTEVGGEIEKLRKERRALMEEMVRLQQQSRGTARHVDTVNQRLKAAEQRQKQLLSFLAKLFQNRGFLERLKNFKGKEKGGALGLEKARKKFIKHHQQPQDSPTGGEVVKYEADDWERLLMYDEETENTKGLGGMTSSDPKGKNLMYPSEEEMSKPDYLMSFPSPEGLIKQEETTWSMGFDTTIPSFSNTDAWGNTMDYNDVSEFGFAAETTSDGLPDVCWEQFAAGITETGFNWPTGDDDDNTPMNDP
CRY1^(PHR WT) in pGADT7 (AD), sequence (Q43125 1-508): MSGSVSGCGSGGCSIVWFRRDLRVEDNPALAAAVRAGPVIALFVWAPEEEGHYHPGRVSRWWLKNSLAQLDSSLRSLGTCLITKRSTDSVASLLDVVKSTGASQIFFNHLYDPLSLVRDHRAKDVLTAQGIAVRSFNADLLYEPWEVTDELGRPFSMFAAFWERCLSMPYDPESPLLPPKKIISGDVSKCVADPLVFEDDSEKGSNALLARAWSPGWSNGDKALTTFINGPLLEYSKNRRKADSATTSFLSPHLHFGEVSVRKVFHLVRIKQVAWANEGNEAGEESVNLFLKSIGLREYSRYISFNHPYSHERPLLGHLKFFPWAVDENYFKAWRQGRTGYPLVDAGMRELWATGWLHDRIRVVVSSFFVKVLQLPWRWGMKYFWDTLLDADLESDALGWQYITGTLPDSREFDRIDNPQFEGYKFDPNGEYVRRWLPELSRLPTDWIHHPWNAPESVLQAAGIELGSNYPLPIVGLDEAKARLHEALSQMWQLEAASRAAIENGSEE
HsFA3 E188R in pGBKT7 (BD) (Arabidopsis thaliana), sequence (Q8GYY1 whole entry E188R): as the sequence (Q8GYY1 whole entry E188R) above
HsFA1e^R126E in pGBKT7 (BD) (Arabidopsis thaliana), sequence (Q9SCW5 whole entry, stated change not applied): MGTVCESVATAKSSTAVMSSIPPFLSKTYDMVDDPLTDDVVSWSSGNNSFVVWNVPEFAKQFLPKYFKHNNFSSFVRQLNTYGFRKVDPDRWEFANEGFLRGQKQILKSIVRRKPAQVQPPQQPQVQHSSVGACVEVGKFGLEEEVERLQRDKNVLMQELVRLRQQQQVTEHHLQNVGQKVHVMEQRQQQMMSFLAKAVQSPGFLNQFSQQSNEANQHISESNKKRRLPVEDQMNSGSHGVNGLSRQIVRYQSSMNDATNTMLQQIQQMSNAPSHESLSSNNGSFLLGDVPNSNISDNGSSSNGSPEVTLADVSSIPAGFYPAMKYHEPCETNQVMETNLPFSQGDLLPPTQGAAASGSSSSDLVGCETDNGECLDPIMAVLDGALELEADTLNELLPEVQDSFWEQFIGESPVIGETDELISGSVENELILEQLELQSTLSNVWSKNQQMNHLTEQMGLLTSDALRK

Substance “CRY1^(PHR WT) in pGADT7 (AD) (from UniProt Q43125 1-508) (domain or fragment)” yielded a fold increase of Y2H interaction relative to WT in assay [1] of 40 fold. In assay [2], this substance returned a reduction of Y2H interaction relative to WT of 0.33.
As to “m1; m17 CRY1:R211E; CRY1:R435E; HsFA3:E188R”, in assay [3], the response was found to be 300 Miller Units.
On the same count and under the same terms, in the case of m1; m17 CRY1:R211E; HsFA3:E188R it was 90 Miller Units.
Still for that read-out and setting: in the case of m1; m17 CRY1:R435E; HsFA3:E188R it was 170 Miller Units.

These data come from publication PMC12753876.
